Experiments:
Steinernema feltiae = test: In vitro effect on the beneficial nematode Steinernema feltiae; type: cell-based
Procedure: Eggs of M. incognita race 1 from North Carolina State University, USA were collected from tomato-infected roots grown in a glasshouse at 23° C. in a 16:8 h light-dark regime. Eggs were extracted using 1% hypochlorite (NaClO) solution (Hussey and Barker, 1973) or by picking egg masses from tomato-infected roots. Juveniles (J2) were hatched from the eggs and egg masses in water. Heterodera glycines eggs were obtained from soil samples stored in Rothamsted-Research. Second stage juveniles (J2) were hatched from the eggs in water after 10 days. Pratylenchus penetrans were a gift from Dr. Deeren Anne-Marie from the Institute for Agricultural and Fisheries Research, Merelbeke, Belgium. The beneficial nematodes Steinernema feltiae and Heterorhabditis megidis were a gift from Dr. Paul Williams from Becker Underwood.
Control wells were set up which contained J2s and distilled water with 16 mM L-cysteine. Each enzyme concentration and the controls were set up in duplicate (i.e. n=2). The actual number of active J2s per well was counted with the aid of an Olympus inverted microscope, prior to the addition of the enzymes, and then the J2s were incubated in the dark at room temperature for 2 hs, 16 hs, 24 hs or 40 hr. The number of live and dead J2s per well was counted after each enzyme incubation. The same procedure was followed when setting up further experiments to compare the effects of these enzymes with Heterodera glycines J2, Pratylenchus penetrans, Steinernema feltiae and Heterorhabditis megidis.
The beneficial nematodes Hetorhabditis megidis and Steinernema feltiae were incubated with dilutions of actinidin, bromelain and pappain from papaya latex (see concentrations used in table 3). These nematodes reacted differentially to these cysteine proteinases (Tables 4 and 5). […] S. feltiae were dead at all concentrations of actinidin tested. […] After 16 hs of observation the enzyme solutions were diluted with water (to half of the initial concentrations) however, no change in nematode movement was observed after 24 hs.

M. incognita J2 = test: In vitro assay of M. incognita J2 present in soil mixtures; type: cell-based
Procedure: The same procedure described above was used to determine the effect of the cysteine proteinases against M. incognita J2 present in soil mixtures. The following soil mixtures were used: fine and coarse sand, peat and fine/coarse sand and loam mix and fine/coarse sand. These soil mixtures were prepared at concentrations of 1:1, 1:3 and 1:6 and autoclaved at […] for 20 min. Peat and loam-mix were obtained from Rothamsted-Research. Soil mixtures were added to 24 well plates (0.5 g) and wetted for 16 hs with either PBS ph 7.2, Tx-100, Milk 5% or cysteine proteinases, in order to wet the soil and block non-specific binding sites present in the soil particles. Then, approximately 100 J2 were added to the wells, followed by cysteine proteinases with 16 mM of L-cysteine to activate the cysteine proteinases or water as control. After 16 hs at room temperature in the dark, individual wells of the 24 well plates were flushed with 1 ml of distilled water to recover the nematodes from the soil mixtures. These were placed in a 24 well plate and the number of dead/live nematodes scored under microscopic observation.
These in vitro experiments were performed in 24 well plates using sterile soil mixtures to diminish the possibility of biological degradation of the enzyme by microorganisms. […] The number of live nematodes was counted before and after enzyme treatment. […]

B1: papain (protein, UniProt P00784 134-345, looked up)
Papain: IPEYVDWRQKGAVTPVKNQGSCGSCWAFSAVVTIEGIIKIRTGNLNEYSEQELLDCDRRSYGCNGGYPWSALQLVAQYGIHYRNTYPYEGVQRYCRSREKGPYAAKTDGVRQVQPYNEGALLYSIANQPVSVVLEAAGKDFQLYRGGIFVGPCGNKVDHAVAAVGYGPNYILIKNSWGTGWGENGYIRIKRGTGNSYGVCGLYTSSFYPVKN
notes: cysteine proteinase from Carica papaya, Merops C01.001, Sigma P3125
Steinernema feltiae
  only papain concentration that affected S. feltiae movement: 250 µM
Steinernema feltiae; enzyme concentration A (Table 3): actinidin 3.3 mM, bromelain 2.2 mM, papain 250 uM
  nematode motility or behaviour: 70% paralysed
Steinernema feltiae; enzyme concentration B: actinidin 1.7 mM, bromelain 1.1 mM, papain 125 uM
  nematode motility or behaviour: All moving slowly
M. incognita J2; papain latex 100 μM, 16 hours, all soil mixtures (sand; 1:3 sand/loam mix; 1:3 sand/peat)
  nematode mortality: 40-50%
M. incognita J2; soil with 16% organic matter wetted with 250 μM papain without L-cysteine, then 250 μM papain in 16 mM L-cysteine, 16 hs
  state of the nematodes after two applications of papain to soil: most nematodes were dead
